From PMC10397247

Tests used:
O14-bH = target: T1, O14-bH; experiment: two-hybrid library CCNG1;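 further: natural log of median RNA to DNA barcode read ratio; higher means stronger binding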
T1 chain: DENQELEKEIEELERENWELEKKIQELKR

O6-bH = target: T2, O6-bH; experiment: two-hybrid library CCNG1;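 further: natural log of median RNA to DNA barcode read ratio; higher means stronger binding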
T2 chain: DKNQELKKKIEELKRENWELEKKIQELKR

O13-bH = target: T3, O13-bH; experiment: two-hybrid library CCNG1;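 further: natural log of median RNA to DNA barcode read ratio; higher means stronger binding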
T3 chain: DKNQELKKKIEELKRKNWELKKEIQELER

O11-bH = target: T4, O11-bH; experiment: two-hybrid library CCNG1;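 further: natural log of median RNA to DNA barcode read ratio; higher means stronger binding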
T4 chain: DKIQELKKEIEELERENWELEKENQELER

O2-bH = target: T5, O2-bH; experiment: two-hybrid library CCNG1
T5 chain: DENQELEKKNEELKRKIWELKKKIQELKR

O8-bH = target: T6, O8-bH; experiment: two-hybrid library CCNG1
T6 chain: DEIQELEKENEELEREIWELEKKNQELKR

O7-bH = target: T7, O7-bH; experiment: two-hybrid library CCNG1
T7 chain: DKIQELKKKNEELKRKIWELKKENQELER

O16-bH = target: T8, O16-bH; experiment: two-hybrid library CCNG1
T8 chain: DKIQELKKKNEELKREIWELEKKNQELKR

O9-bH = target: T9, O9-bH; experiment: two-hybrid library CCNG1
T9 chain: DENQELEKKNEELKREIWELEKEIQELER

O5-bH = target: T10, O5-bH; experiment: two-hybrid library CCNG1
T10 chain: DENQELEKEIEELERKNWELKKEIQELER

O12-bH = target: T11, O12-bH; experiment: two-hybrid library CCNG1
T11 chain: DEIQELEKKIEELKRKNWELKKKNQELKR

O3-bH = target: T12, O3-bH; experiment: two-hybrid library CCNG1
T12 chain: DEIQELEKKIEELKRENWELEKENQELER

O15-bH = target: T13, O15-bH; experiment: two-hybrid library CCNG1
T13 chain: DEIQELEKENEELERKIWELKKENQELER

O4-bH = target: T14, O4-bH; experiment: two-hybrid library CCNG1
T14 chain: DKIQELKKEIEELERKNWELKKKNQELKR

4H3438-AA = target: T15, 4H3438-AA; experiment: two-hybrid library CCmax; conditions: mean of both orientations
T15 chain: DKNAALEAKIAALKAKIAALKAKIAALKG

4H1828-AA = target: T16, 4H1828-AA; experiment: two-hybrid library CCmax; conditions: mean of both orientations
T16 chain: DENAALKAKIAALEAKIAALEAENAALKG

4H2774-AA = target: T17, 4H2774-AA; experiment: two-hybrid library CCmax; conditions: mean of both orientations
T17 chain: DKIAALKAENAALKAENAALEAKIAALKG

GCN2_T = experiment: two-hybrid library CCmax
4H2466-AA = target: T18, 4H2466-AA; experiment: two-hybrid library CCmax; conditions: mean of both orientations
T18 chain: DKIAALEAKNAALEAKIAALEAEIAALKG

4H_GCN4 = experiment: two-hybrid library CCmax
4H347-AA = target: T19, 4H347-AA; experiment: two-hybrid library CCmax
T19 chain: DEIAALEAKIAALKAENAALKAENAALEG

4H2124-AA = target: T20, 4H2124-AA; experiment: two-hybrid library CCmax; conditions: mean of both orientations
T20 chain: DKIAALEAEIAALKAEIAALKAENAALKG

4H2330-AA = target: T21, 4H2330-AA; experiment: two-hybrid library CCmax; conditions: mean of both orientations
T21 chain: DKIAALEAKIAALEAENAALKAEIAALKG

4H452-AA = target: T22, 4H452-AA; experiment: two-hybrid library CCmax; conditions: mean of both orientations
T22 chain: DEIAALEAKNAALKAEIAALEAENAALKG

4H406-AA = target: T23, 4H406-AA; experiment: two-hybrid library CCmax; conditions: mean of both orientations
T23 chain: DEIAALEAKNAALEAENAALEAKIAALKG

4H_APH = target: T24, 4H_APH; experiment: two-hybrid library CCmax
T24 chain: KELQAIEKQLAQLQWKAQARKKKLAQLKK

4H56-AA = target: T25, 4H56-AA; experiment: two-hybrid library CCmax; conditions: mean of both orientations
T25 chain: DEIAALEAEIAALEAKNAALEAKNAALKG

4H_BCR = target: T26, 4H_BCR; experiment: two-hybrid library CCmax; conditions: mean of both orientations
T26 chain: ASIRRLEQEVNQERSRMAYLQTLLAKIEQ

4H249-AA = target: T27, 4H249-AA; experiment: two-hybrid library CCmax; conditions: mean of both orientations
T27 chain: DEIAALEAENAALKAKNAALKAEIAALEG

4H3073-AA = target: T28, 4H3073-AA; experiment: two-hybrid library CCmax
T28 chain: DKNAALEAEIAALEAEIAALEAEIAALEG

4H1821-AA = target: T29, 4H1821-AA; experiment: two-hybrid library CCmax; conditions: mean of both orientations
T29 chain: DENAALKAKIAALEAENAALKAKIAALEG

4H2931-AA = target: T30, 4H2931-AA; experiment: two-hybrid library CCmax; conditions: mean of both orientations
T30 chain: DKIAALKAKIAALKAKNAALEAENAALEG

4H3015-AA = target: T31, 4H3015-AA; experiment: two-hybrid library CCmax; conditions: mean of both orientations
T31 chain: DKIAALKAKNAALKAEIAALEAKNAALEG

4H2253-AA = target: T32, 4H2253-AA; experiment: two-hybrid library CCmax; conditions: mean of both orientations
T32 chain: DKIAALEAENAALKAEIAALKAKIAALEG

4H2343-AA = target: T33, 4H2343-AA; experiment: two-hybrid library CCmax; conditions: mean of both orientations
T33 chain: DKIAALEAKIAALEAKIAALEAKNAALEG

4H2732-AA = target: T34, 4H2732-AA; experiment: two-hybrid library CCmax; conditions: mean of both orientations
T34 chain: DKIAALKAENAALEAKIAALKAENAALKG

4H175-AA = target: T35, 4H175-AA; experiment: two-hybrid library CCmax
T35 chain: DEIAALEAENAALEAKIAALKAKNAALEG

4H2592-AA = target: T36, 4H2592-AA; experiment: two-hybrid library CCmax; conditions: mean of both orientations
T36 chain: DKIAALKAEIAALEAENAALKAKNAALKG

4H1765-AA = target: T37, 4H1765-AA; experiment: two-hybrid library CCmax; conditions: mean of both orientations
T37 chain: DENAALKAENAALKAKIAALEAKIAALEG

4H1930-AA = target: T38, 4H1930-AA; experiment: two-hybrid library CCmax; conditions: mean of both orientations
T38 chain: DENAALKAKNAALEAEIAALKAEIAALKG

4H2165-AA = target: T39, 4H2165-AA; experiment: two-hybrid library CCmax; conditions: mean of both orientations
T39 chain: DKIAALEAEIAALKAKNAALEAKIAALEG

4H3001-AA = target: T40, 4H3001-AA; experiment: two-hybrid library CCmax; conditions: mean of both orientations
T40 chain: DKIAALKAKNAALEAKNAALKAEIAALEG

4H797-AA = target: T41, 4H797-AA; experiment: two-hybrid library CCmax; conditions: mean of both orientations
T41 chain: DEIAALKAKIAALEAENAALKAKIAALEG

4H3855-AA = target: T42, 4H3855-AA; experiment: two-hybrid library CCmax; conditions: mean of both orientations
T42 chain: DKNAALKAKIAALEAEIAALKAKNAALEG

4H3354-AA = target: T43, 4H3354-AA; experiment: two-hybrid library CCmax; conditions: mean of both orientations
T43 chain: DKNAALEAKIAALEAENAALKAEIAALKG

4H918-AA = target: T44, 4H918-AA; experiment: two-hybrid library CCmax; conditions: mean of both orientations
T44 chain: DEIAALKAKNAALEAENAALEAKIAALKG

4H3427-AA = target: T45, 4H3427-AA; experiment: two-hybrid library CCmax; conditions: mean of both orientations
T45 chain: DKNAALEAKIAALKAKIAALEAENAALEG

4H967-AA = target: T46, 4H967-AA; experiment: two-hybrid library CCmax; conditions: mean of both orientations
T46 chain: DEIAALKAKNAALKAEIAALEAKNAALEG

4H568-AA = target: T47, 4H568-AA; experiment: two-hybrid library CCmax; conditions: mean of both orientations
T47 chain: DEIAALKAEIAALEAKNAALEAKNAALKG

4H883-AA = target: T48, 4H883-AA; experiment: two-hybrid library CCmax; conditions: mean of both orientations
T48 chain: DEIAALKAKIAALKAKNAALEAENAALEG

4H717-AA = target: T49, 4H717-AA; experiment: two-hybrid library CCmax; conditions: mean of both orientations
T49 chain: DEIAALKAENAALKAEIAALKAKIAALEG

4H2442-AA = target: T50, 4H2442-AA; experiment: two-hybrid library CCmax
T50 chain: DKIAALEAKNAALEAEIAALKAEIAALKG

4H3782-AA = target: T51, 4H3782-AA; experiment: two-hybrid library CCmax; conditions: mean of both orientations
T51 chain: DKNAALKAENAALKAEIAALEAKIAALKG

4H3112-AA = target: T52, 4H3112-AA; experiment: two-hybrid library CCmax; conditions: mean of both orientations
T52 chain: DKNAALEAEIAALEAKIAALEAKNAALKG

4H687-AA = target: T53, 4H687-AA; experiment: two-hybrid library CCmax; conditions: mean of both orientations
T53 chain: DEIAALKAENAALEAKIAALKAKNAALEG

4H953-AA = target: T54, 4H953-AA; experiment: two-hybrid library CCmax; conditions: mean of both orientations
T54 chain: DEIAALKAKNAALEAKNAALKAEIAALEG

4H4001-AA = target: T55, 4H4001-AA; experiment: two-hybrid library CCmax; conditions: mean of both orientations
T55 chain: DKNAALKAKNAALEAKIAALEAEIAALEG

4H_GCN4, sequence (chain, as listed by the source): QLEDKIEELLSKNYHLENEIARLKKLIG

DKIQELKKEIEELERENWELEKENQELER [O11-bH]
interaction score (O14-bH): -0.342 | interaction score (O6-bH): -0.451 | interaction score (O13-bH): -0.515 | interaction score (O11-bH): -0.129 | interaction score (O2-bH): -1.24 | interaction score (O8-bH): -0.273 | interaction score (O7-bH): 0.102 | interaction score (O16-bH): -0.352 | interaction score (O9-bH): -1.15 | interaction score (O5-bH): -3.76 | interaction score (O12-bH): 1.01 | interaction score (O3-bH): 0.233 | interaction score (O15-bH): -0.515 | interaction score (O4-bH): 1.29

DEIAALEAENAALEAKIAALKAKNAALEG [4H175-AA]
interaction score (4H3438-AA): -0.317 | interaction score (4H1828-AA): -1.69 | interaction score (4H2774-AA): -0.332 | interaction score (GCN2_T): -0.991 | interaction score (4H2466-AA): -1.58 | interaction score (4H_GCN4): -1 | interaction score (4H347-AA): -1.44 | interaction score (4H2124-AA): -1.39 | interaction score (4H2330-AA): -1.68 | interaction score (4H452-AA): 0.385 | interaction score (4H406-AA): -1.39 | interaction score (4H_APH): -0.714 | interaction score (4H56-AA): -1.56 | interaction score (4H_BCR): -2.06 | interaction score (4H249-AA): 0.000294 | interaction score (4H3073-AA): -2.69 | interaction score (4H1821-AA): -1.36 | interaction score (4H2931-AA): -1.11 | interaction score (4H3015-AA): 2.21 | interaction score (4H2253-AA): -0.981 | interaction score (4H2343-AA): -1.82 | interaction score (4H2732-AA): -0.776 | interaction score (4H175-AA): -0.721 | interaction score (4H2592-AA): -1.32 | interaction score (4H1765-AA): -1.18 | interaction score (4H1930-AA): -1.75 | interaction score (4H2165-AA): -1.43 | interaction score (4H3001-AA): -0.307

DKIAALEAKNAALEAEIAALKAEIAALKG [4H2442-AA]
interaction score (4H797-AA): -1.52 | interaction score (4H3855-AA): -1.56 | interaction score (4H3354-AA): -1.37 | interaction score (4H918-AA): -1.29 | interaction score (4H3427-AA): -1.52 | interaction score (4H967-AA): -2.2 | interaction score (4H568-AA): -1.38 | interaction score (4H883-AA): -1.82 | interaction score (4H717-AA): -1.4 | interaction score (4H2442-AA): 1.97 | interaction score (4H3782-AA): -1.14 | interaction score (4H3112-AA): -1.4 | interaction score (4H687-AA): -1.85 | interaction score (4H953-AA): -1.67 | interaction score (4H4001-AA): -2.06
